This test deals with EBOV GP ectodomain for structural work (EBOV Mayinga, residues 33-651, mucin-like domain deleted, double Strep-tag) (Orthoebolavirus zairense (Ebola virus, EBOV), Mayinga) (UniProt Q05320). Briefly: cryo-EM structure.

By stoichiometry N is commonly meant a count of units in the complex or per binding partner. “EBOV GP ectodomain for structural work (EBOV Mayinga, residues 33-651, mucin-like domain deleted, double Strep-tag) (from UniProt Q05320 33-651) (domain or fragment)” came in with a stoichiometry N of 3.

The values are drawn from paper PMC13365404.
